# Results as given in article doi:10.1101/2022.04.21.488985 (bioRxiv, 2022).
# B1: D5 nanobody (camel VHH) (VHH)
# VHH: AWQLVESGGGSVQPGGSLTLTCQASKSTFSTSGMRWERQAQGKGVEFVADISSDSTRKWYSDSVKGRFTISRSNWWRTVTLQMNDLKPEDTARYYCKDLESHHLRGQGTQVTVSS
# notes: also called single domain antibody D5
# Biological target: T1, bovine serum albumin (Bos taurus, UniProt P02769)
# T1 construct: also called BSA
# Test: ELISA
# T1 sequence (P02769 25-607): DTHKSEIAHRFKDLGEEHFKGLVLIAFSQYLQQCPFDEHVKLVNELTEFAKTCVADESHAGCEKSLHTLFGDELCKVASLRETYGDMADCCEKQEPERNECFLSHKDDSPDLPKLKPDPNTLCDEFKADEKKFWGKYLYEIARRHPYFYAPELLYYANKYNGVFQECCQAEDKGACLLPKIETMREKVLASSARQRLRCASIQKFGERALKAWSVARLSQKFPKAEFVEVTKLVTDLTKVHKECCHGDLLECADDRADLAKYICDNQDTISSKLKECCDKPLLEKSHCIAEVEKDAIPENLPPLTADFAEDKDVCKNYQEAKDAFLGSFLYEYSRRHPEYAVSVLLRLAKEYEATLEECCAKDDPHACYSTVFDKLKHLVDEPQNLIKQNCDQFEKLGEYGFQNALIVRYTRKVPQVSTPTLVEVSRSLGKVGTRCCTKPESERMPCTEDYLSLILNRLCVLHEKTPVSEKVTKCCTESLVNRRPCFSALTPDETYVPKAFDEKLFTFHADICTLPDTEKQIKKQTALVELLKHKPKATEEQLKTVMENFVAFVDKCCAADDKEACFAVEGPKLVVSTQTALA
binder,measurement,value
B1,binding result,no binding
